Here are results for 10 substances from article PMC12599920.

For the test, the target named is Mushroom body defect coiled-coil domain (Mud^CC). Kind of test: saturation binding (MBP pull-down, gel quantification). Particulars: read off a plot.
Where [1] appears, read: right plot, 20 µM MudCC, parent: est. 130.

On to “MBP:Hts (110-401), full-length Hts aldolase domain (from UniProt Q02645) R205A; D207A”, for which the response (5 µM MudCC, parent: est. 98) turned out to be 120 AU and the response (20 µM MudCC, parent: est. 140) was 140 AU.

For “MBP:Hts (110-310), CThelix truncation of the Hts aldolase domain (from UniProt Q02645) Y159A; L162A; E165A”, the response is, setting by setting: (left plot, 5 µM MudCC, parent: est. 83) 1 AU; (left plot, 20 µM MudCC, parent: est. 110) 5 AU.

As to “MBP:Hts (110-401), full-length Hts aldolase domain (from UniProt Q02645) D310A”, the response reads like this: (5 µM MudCC, parent: est. 98) 130 AU; (20 µM MudCC, parent: est. 140) 150 AU.

Turning to “MBP:Hts (110-310), CThelix truncation of the Hts aldolase domain (from UniProt Q02645) R128A”, the response is 120 AU (right plot, 5 µM MudCC, parent: est. 99) and 140 AU under setting [1].

Take “MBP:Hts (110-310), CThelix truncation of the Hts aldolase domain (from UniProt Q02645) L139A”: the response was 38 AU (right plot, 5 µM MudCC, parent: est. 110); 86 AU (right plot, 10 µM MudCC, parent: est. 120); 140 AU under setting [1].

For the substance “MBP:Hts (110-401), full-length Hts aldolase domain (from UniProt Q02645) Y159A; L162A; E165A”, the response was found to be 7 AU (left plot, 5 µM MudCC, parent: est. 120) and 24 AU (left plot, 20 µM MudCC, parent: est. 140).

“3OCR_ΔCT, P. syringae aldolase enzyme with the CThelix deleted FLEaaa”: the response is, setting by setting: (10 µM MudCC, parent: est. 110) 27 AU; (20 µM MudCC, parent: est. 140) 46 AU; (40 µM MudCC, parent: est. 140) 57 AU.

With “MBP:Hts (110-310), CThelix truncation of the Hts aldolase domain (from UniProt Q02645) H164A; T167A”, the response by setting is: (left plot, 5 µM MudCC, parent: est. 110) 100 AU; (left plot, 20 µM MudCC, parent: est. 130) 120 AU.

As to “MBP:Hts (110-401), full-length Hts aldolase domain (from UniProt Q02645) Q151A; E152A”, the response runs as follows: (5 µM MudCC, parent: est. 98) 93 AU; (20 µM MudCC, parent: est. 140) 150 AU.

With “MBP:Hts (110-401), full-length Hts aldolase domain (from UniProt Q02645) Q177A; V181A”, the response turned out to be 110 AU (5 µM MudCC, parent: est. 98) and 150 AU (20 µM MudCC, parent: est. 140).
